# Laboratory results taken from patent US10429300B2, “Surface plasmon resonance approach to monitor protein-ligand interactions” (The Johns Hopkins University, priority 2015, dated 2019).
# Experiments:
# [1] = target: T1, rNav1.2a VSD IV paddle peptide (R1629A/L1630A, SEQ ID NO: 4) (Rattus norvegicus, UniProt P04775, L1630A/R1629A); test: SPR on immobilized rNav1.2a VSD IV paddle peptide; assay type: binding
# T1 construct: purchased ProteoGenix; host or cells: chemical synthesis (Fmoc solid phase)
# T1 sequence (P04775 1605-1636 R1629A/L1630A): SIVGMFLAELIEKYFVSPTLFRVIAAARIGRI
# [2] = target: T2, rNav1.2a VSD II paddle peptide (V843A, SEQ ID NO: 2) (Rattus norvegicus, UniProt P04775, V843A); test: SPR on immobilized rNav1.2a VSD II paddle peptide; assay type: binding; conditions: for SPR binding to VSD II paddle peptide: 100 nM toxin, 500 fmol peptide
# T2 construct: purchased ProteoGenix; host or cells: chemical synthesis (Fmoc solid phase)
# T2 sequence (P04775 832-856 V843A): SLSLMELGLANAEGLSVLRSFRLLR
# Experimental: SPR experiments were performed at 25° C. on a Biacore™ T200 instrument (GE Healthcare) using 150 mM NaCl, 3 mM EDTA, 0.005% surfactant P20, and 10 mM HEPES-NaOH, pH 7.4, for the coupling protocol or 50 mM phosphate, pH 7.2, as running buffer. Neutravidin (Thermo Fisher Scientific) was immobilized on CM5 sensor chips (GE Healthcare) using an amine coupling chemistry. All chemicals were obtained from Sigma-Aldrich. […] In all SPR experiments, nonspecific binding obtained in the control flow cell was subtracted from the signal obtained in the experimental flow cell. For qualitative binding analysis, toxins (100 nM in running buffer containing 0.1% BSA) were injected at a flow rate of 20 μl/min over 2 min. […] In between injections, the surface of the sensor chip was regenerated by injecting 1 M NaCl (15 s at 30 l/min). The bulk signal caused by refractive index differences between the flow buffer and the buffer containing the analyte was systematically excluded from the data-fitting process. It is worth noting that isolating a paddle motif (ligand) can induce conformational changes that can affect toxin (analyte) efficacy. […] Sensorgrams can reveal such ligand heterogeneity by displaying biphasic dissociation curves that cannot be fitted with the frequently used Langmuir model, which assumes a 1:1 stoichiometry of analyte to ligand. To account for a possible heterogeneity of surface sites, we calculated the rate constants and affinity equilibrium dissociation constants (KD) for AaHII by a fit to a heterogeneous ligand model incorporated into the Biacore T200 Evaluation™ software (v1.0). This model assumes the presence of two sites on the ligand that can bind analyte and can be described by these equations in which A represents the analyte and B1/B2 represents the heterogeneous ligand:
# (A) Shown are the CD spectra of the rNav1.2a VSD II and IV paddle peptides used in this paper. […] (B) Representative association and dissociation kinetic curves obtained using SPR after the application of varying concentrations of AaHII (15-2,000 nM) over a sensor chip to which 50 fmol of the rNav1.2a VSD IV paddle peptide was linked. Toxin was applied after obtaining a steady baseline. Colored traces represent toxin binding obtained after subtraction of the signal from the control flow cell. […] Toxin concentrations are indicated on the right in a shade of gray corresponding to the sensorgram. (C) Representative SPR traces after the application of 100 nM KTX, AaHI, AaHII, LqqV, BomIV, TsVII, and CssIV over a sensor chip to which the rNav1.2a VSD II (left) or IV (right) paddle peptide (500 fmol) was linked. Toxin was applied after obtaining a steady baseline. (D) Binding capacities of 100 nM α-scorpion toxins AaHI, AaHII, LqqV, the α-like scorpion toxin BomIV, and the β-scorpion toxins TsVII and CssIV to the VSD II and IV paddle motifs using SPR (error bars represent±SEM). Y-axis represents the maximum RUs obtained after toxin application.
# Next, the VSD IV peptide was fixed on SPR sensor chips by adding a K-linked biotin group to the C terminus, resulting in a 32-amino acid peptide altogether (SEQ ID NO: 4 which is mutated SEQ ID NO: 3 of FIG. 2A).
# [3] = heterogeneous ligand model, 15-2,000 nM toxin, 50 fmol peptide, n=3, mean±SD
# [4] = heterogeneous ligand model, 50 fmol peptide
# [5] = heterogeneous ligand model, 50 fmol peptide, n=3, mean±SD
Molecule,"association rate ka1 [1, 3]","association rate ka2 [1, 3]","dissociation rate kd1 [1, 3]","dissociation rate kd2 [1, 3]","RUmax1 [1, 4]","RUmax2 [1, 4]","high affinity KD1 (kd1/ka1) [1, 5]","lower affinity KD2 (kd2/ka2) [1, 5]",SPR binding to VSD II paddle peptide [2],SPR effect on VSD II paddle motif ([2]; up to 20 μM toxin),"SPR binding to VSD IV paddle peptide ([1]; 100 nM toxin, 500 fmol peptide)"
AaHII: Nav channel-selective α-scorpion toxin from Androctonus australis hector; model toxin (protein) VKDGYIVDDVNCTYFCGRNAYCNEECTKLKGESGYCQWASPYGNACYCYKLPDHVRTKGPGRCH,2330 ± 910 M⁻¹ s⁻¹,38200 ± 4700 M⁻¹ s⁻¹,0.000979 ± 0.00014 s⁻¹,0.0281 ± 0.0058 s⁻¹,135,23,479 ± 241 nM,747 ± 203 nM,a response was not obtained,not noticed,–
CssIV: β-scorpion toxin from Centruroides suffusus suffusus (protein) KEGYLVNSYTGCKFECFKLGDNDYCLRECRQQYGKGSGGYCYAFGCWCTHLYEQAVVWPLPNKTCN,–,–,–,–,–,–,–,–,no RUs could be detected,–,no RUs could be detected
